Results taken from US10272117B2, “Methods of using an activator of cereblon for neural cell expansion and the treatment of central nervous system disorders” (Celgene Corporation, priority 2014, dated 2019).

Tested on: zebrafish embryos
Assay: Brain size, morphology and volume of zebrafish embryos (microscopy, MRI)
Format: in vivo
Details: for brain development: 22 hpf
Protocol: An aqueous solution of a 25-mer antisense morpholino oligonucleotide (AMO, Gene Tools, LLC) corresponding to the vicinity of the translation initiation codon in the cDNA sequence of the gene to be knocked down ([…] injection conditions were the same as those used for RNA) was injected into the embryos at the 1-cell stage. The sequence of AMO used for the CRBN gene knockdown is 5′-[…]-3′ (SEQ ID NO: 3). The sequence of AMO used for the Lhx2 gene knockdown is 5′-[…]-3′ (SEQ ID NO:4). The sequence of AMO used for the BRD7 gene knockdown is 5′-[…]-3′ (SEQ ID NO:1). The sequence of AMO used for the Ikaros gene knockdown is 5′-[…]-3′ (SEQ ID NO:2). […]
In order to examine the effect of antagonists of BRD7 on brain growth, BRD7 was knocked down or over-expressed in zebrafish embryos. Knockdown of BRD7 was performed by microinjection of antisense morpholino oligonucleotides (AMO). Overexpression of BRD7 was performed by microinjection of synthesized capped mRNA. AMO or capped mRNA was introduced into one-cell stage embryos by using a nitrogen gas-pressure microinjector IM 300 (Narishige). Conditions for microinjection were as follows: gas pressure was about 15 picosiemens; release period was about 30 to about 50 milliseconds per single injection; concentrations of AMOs and capped mRNA were 400 ng/μl and 250 ng/μl in nuclease-free water, respectively. Capped mRNAs were synthesized in vitro using the mMESSAGE mMachine® in vitro transcription kit (Ambion) from cDNAs cloned into pCS2+ plasmids.
The brains of the embryos were examined for morphology and volume by magnetic resonance imaging (MRI). FIGS. 9A, 9B, and 9C show microscopic pictures of the untreated, the BRD7-knockdown, and the BRD7-overexpressing zebrafish embryos, respectively. FIGS. 9D, 9E, and 9F show fluorescent microscopic pictures of the brain regions of the untreated, the BRD7-knockdown, and the BRD7-overexpressing zebrafish embryos, respectively. As shown in these figures, the BRD7-knockdown zebrafish embryos had bigger heads than the untreated embryos. […] The volume of the whole brain of the BRD7-knockdown fish was much bigger than that of the untreated fish, while for the BRD7-overexpressing fish, the brain volume was smaller.
In order to examine the effect of antagonists of Ikaros on brain growth, Ikaros was knocked down or over-expressed in zebrafish embryos. Knockdown of Ikaros was performed by microinjection of antisense morpholino oligonucleotides (AMO). Overexpression of Ikaros was performed by injection of synthesized capped mRNA. AMO or capped mRNA was introduced into one-cell stage embryos by using a nitrogen gas-pressure microinjector IM 300 (Narishige). Conditions for microinjection were as follows: gas pressure was about 15 picosiemens; release period was about 30 to about 50 milliseconds per single injection; concentrations of AMOs and capped mRNA were 400 ng/μl and 250 ng/μl in nuclease-free water, respectively. Capped mRNAs were synthesized in vitro using the mMESSAGE mMachine® in vitro transcription kit (Ambion) from cDNAs cloned into pCS2+ plasmids.
The brains of the embryos were examined for morphology and volume by magnetic resonance imaging (MRI). FIGS. 15A, 15B, and 15C show microscopic pictures of untreated, Ikaros-knockdown, and Ikaros-overexpressing zebrafish embryos at 55 hpf, respectively. As shown in these figures, the Ikaros-knockdown fish had bigger heads than the untreated embryos. […] The volume of the whole brain of the Ikaros-knockdown fish was much bigger than that of the untreated fish, while for the Ikaros-overexpressing fish, the brain volume was smaller.

Molecule	brain size compared to the normal embryo (FIG. 1)	brain development
5′-TCTGCAACCCAAGATTTCCGTGAGA-3′ (all phosphorodiamidate morpholino (PMO)) [lhx2 gene-knockdown, 25-mer antisense morpholino oligonucleotide (AMO) used for the Lhx2 gene knockdown, reference compound]	brain shrinkage	–
ikzf1-006: Ikaros variant lacking exon 7, overexpressed as fused Ikzf1:EGFP protein in zebrafish embryos (nucleic acid, fused to EGFP; nucleotide sequence of ikzf1-006 Ikaros variant; 808 n = A,T,C or G, Ikaros variant lacking exon 7, overexpressed as fused Ikzf1:EGFP protein in zebrafish embryos) DNA: ATGGAGACTGAGGAGGCACAGGAAATGTCCCAGATAACAGGAAGAGACAGCCCGATGAATGCTAATGAAGGCGGAGAGGATCAAGATGAGGCCATGCCTGTTCCTGAAGACTTGTCAGCAAGCACTGGCCTCCAACACAACAATCGCACAGATAAACCACTGGCCTGTAATATAAAAGTTGAGGCTCGGAGTGACGAGGAAAACGGTCTGTCCTGTGAGATGAATGGAGAGGCAGAGGAATGTGCAGCTGAGGACTTGCGCATACTCGATGGCTCTGGGGCCAAAGTGAACGGCTCCCACGCAGGCCCCGACAGCAAGCCGGCCGCCTACCCCACAGCCGGGGGCATCCGCCTCCCCAACGGGAAGCTGAAGTGCGATATCTGTGGGATAGTTTGCATTGGGCCCAATGTGTTGATGGTTCACAAGCGAAGTCACACTGAAGAAAGAAAGTCAGTTTTGGAACAACAAAAAGGTGAAAGGCCATTCCAGTGCAATCAATGTGGTGCTTCATTCACTCAGAAGGGTAACCTGCTCCGACACATCAAACTTCACTCTGGCGAGAAACCTTTCAAATGTCACCTGTGCAACTATGCTTGCCGCCGCAGAGACGCTCTCACTGGACATCTGCGCACTCATTCGGTTGGAAAGCCCCATAAGTGTGCATATTGCGGACGCAGTTACAAGCAGCGGAGCTCACTGGAGGAACATAAGGAGAGATGTCACAACTACTTGCAGTGCATGGGCCTTCAGAACAGCATTTATACAGGAGAGAATCGTCTGTCAGAGCTATCTTTCGAGAGTGGCTCANGTGAGCTGATGCAGCCCCATGTGATTGATCAGGCCATCAACAGTGCAATTAGCTATCTGGGTGCAGAGTCCTTGCGGCCTCTGGTTCAGACCTCTCCTGGGTCCGCCGACATGGTGGTCAGCCCTCTATACAACCTGCACAAGTCACAAACAGCTGAAGGCAATGGTGTTTCTGCTAAAGACAGCGCCGCAGAGCACCTTCTCCTACTCTCTAAGTCCAAATCCGCCTCTGTTGACAAAGACGGTTCCCCCAGTCCCAGCGGGCAGGATTCCACTGACACTGAGAGCAACAACGAGGAGCGTTCGGCCGGGGTAAGCGGAACAGCAGCCACAGGTGGTCTCATCTACCTGACCAACCACATGGCTCCAGGTATGAGAAATGGAGGCCTGCCAGGGGTAAAGGAAGAACAACACCGGCAGTTTGAGGCTTTGCGAGCAGCAGGAATGGATTTGAGTATAGCGTCATCAGAAGGATTTAAGGTGCTAAGTGGAGATGGAGAAGAATTGAGGGCGTACCGCTGTATCCACTGCAGAGTTTTGTTCCTGGATCATGTCATGTACACCATCCACATGGGCTGTCATGGCTTCCGAGACCCCTTTGAGTGCAACCTATGCGGGTACCGCAGTCAGGACCGTTATGAGTTCTCATCGCACATCACACGTGGAGAGCACCGCATCTGA	–	reduction of brain development
ikzf1-007: Ikaros variant lacking exons 4 and 7, overexpressed as fused Ikzf1:EGFP protein in zebrafish embryos (nucleic acid, fused to EGFP; nucleotide sequence of ikzf1-007 Ikaros variant; 775 n = A,T,C or G, Ikaros variant lacking exons 4 and 7, overexpressed as fused Ikzf1:EGFP protein in zebrafish embryos) DNA: ATGGAGACTGAGGAGGCACAGGAAATGTCCCAGATAACAGGAAGAGACAGCCCGATGAATGCTAATGAAGGCGGAGAGGATCAAGATGAGGCCATGCCTGTTCCTGAAGACTTGTCAGCAAGCACTGGCCTCCAACACAACAATCGCACAGATAAACCACTGGCCTGTAATATAAAAGTTGAGGCTCGGAGTGACGAGGAAAACGGTCTGTCCTGTGAGATGAATGGAGAGGCAGAGGAATGTGCAGCTGAGGACTTGCGCATACTCGATGGCTCTGGGGCCAAAGTGAACGGCTCCCACGCAGGCCCCGACAGCAAGCCGGCCGCCTACCCCACAGCCGGGGGCATCCGCCTCCCCAACGGGAAGCTGAAGTGCGATATCTGTGGGATAGTTTGCATTGGGCCCAATGTGTTGATGGTTCACAAGCGAAGTCACACTGGTGAAAGGCCATTCCAGTGCAATCAATGTGGTGCTTCATTCACTCAGAAGGGTAACCTGCTCCGACACATCAAACTTCACTCTGGCGAGAAACCTTTCAAATGTCACCTGTGCAACTATGCTTGCCGCCGCAGAGACGCTCTCACTGGACATCTGCGCACTCATTCGGTTGGAAAGCCCCATAAGTGTGCATATTGCGGACGCAGTTACAAGCAGCGGAGCTCACTGGAGGAACATAAGGAGAGATGTCACAACTACTTGCAGTGCATGGGCCTTCAGAACAGCATTTATACAGGAGAGAATCGTCTGTCAGAGCTATCTTTCGAGAGTGGCTCANGTGAGCTGATGCAGCCCCATGTGATTGATCAGGCCATCAACAGTGCAATTAGCTATCTGGGTGCAGAGTCCTTGCGGCCTCTGGTTCAGACCTCTCCTGGGTCCGCCGACATGGTGGTCAGCCCTCTATACAACCTGCACAAGTCACAAACAGCTGAAGGCAATGGTGTTTCTGCTAAAGACAGCGCCGCAGAGCACCTTCTCCTACTCTCTAAGTCCAAATCCGCCTCTGTTGACAAAGACGGTTCCCCCAGTCCCAGCGGGCAGGATTCCACTGACACTGAGAGCAACAACGAGGAGCGTTCGGCCGGGGTAAGCGGAACAGCAGCCACAGGTGGTCTCATCTACCTGACCAACCACATGGCTCCAGGTATGAGAAATGGAGGCCTGCCAGGGGTAAAGGAAGAACAACACCGGCAGTTTGAGGCTTTGCGAGCAGCAGGAATGGATTTGAGTATAGCGTCATCAGAAGGATTTAAGGTGCTAAGTGGAGATGGAGAAGAATTGAGGGCGTACCGCTGTATCCACTGCAGAGTTTTGTTCCTGGATCATGTCATGTACACCATCCACATGGGCTGTCATGGCTTCCGAGACCCCTTTGAGTGCAACCTATGCGGGTACCGCAGTCAGGACCGTTATGAGTTCTCATCGCACATCACACGTGGAGAGCACCGCATCTGA	–	reduction of brain development
